This is an account of results in article PMC5923107 (Antimicrobial Agents and Chemotherapy, 2018).

What all share (conditions): both partners purified
In assay [1] the target is T1, biotinylated HA antigen of B/Florida/04/2006 (Influenza B virus B/Florida/4/2006, UniProt E1TVD5, strain).
T1 construct: also called HA of B/Florida/04/2006
Description: BLI.

The target in assay [2] is T2, hemagglutinin (HA) of influenza A virus A/Sydney/05/1997 (H3N2, group 2) (Influenza A virus A/Sydney/5/1997 (H3N2), UniProt C3PR59, strain).
T2 construct: also called A/Sydney/05/1997 HA
Description: ELISA.

The target of assay [3] is T3, hemagglutinin (HA) of influenza A virus A/California/07/2009 (H1N1, group 1) (Influenza A virus A/California/07/2009 …, UniProt C3W5X2, strain).
T3 construct: also called A/California/07/2009 HA
Description: ELISA.

B1: TRL847 (antibody, V domains shown)
VH: QVQLVESGGGLVQPGGSLRLSCVASGFTFSRFSMNWVRQAPGMGLEWVSYISDTGRTIYYADSVKGRFTISRDNDKNTLYLQMKSLRDEDSAFYYCARDPDTPFVRAFDSWGQGVLVTVSS
VL: DIVMTQSPSFLSASVGDRVTITCRTSQVISSYLAWYQQRPGKAPKLLIYAASTLQSGVPSRFSGSGSGTRFSLTISNLQPEDFATYFCQQLTTYPPITFGQGTRLEIK
notes: also called MAb TRL847
In the case of B1, the binding result is reported as “binds” in assay [1], “no binding (tested: 5 μg/ml (30 nM))” in assay [2] and “no binding (tested: 5 μg/ml (30 nM))” in assay [3].

B2: TRL854 (antibody, V domains shown)
VH: QVQLVESGAEVKKPGASVRVSCKGSGYTFTAYHMHWVRQAPGQGFEWVGWINPNSGATYYTSTFEGRVTMTRDTSITTAYMELSSLRSDDTAVYYCATDIVVERDASLGGFNSYGMDVWGQGTTVTVSS
VL: DIEMTQSPLSLPVTPGEPASISCRSSQSLLHSNGYNHLAWYLQKPGRSPHLLIYLASTRASGVPDRFSGSGSGTDFTLKISRVEAEDVGIYYCMQSLQTSITFGQGTRLEIK
notes: also called MAb TRL854
Regarding B2, the binding result in assay [1] is recorded as “binds”; in assay [2], “no binding (tested: 5 μg/ml (30 nM))”; in assay [3], “no binding (tested: 5 μg/ml (30 nM))”.

B3: TRL848 (antibody, V domains shown)
VH: QVQLLESGGDVVQPGTSLRLSCAASGFSLWTSGMHWVRQAPGKGLEWVAVMSYDETKKYYADSVRGRFSISRDNSRNTLYLQMNSLRVEDTAVYFCAKPRLDYLDYFHAADSWGQGTLVSVSS
VL: DIVLTQPPSVSVAPGQTATITCGGNYIGSKSVNWYQQRPGHAPVLVVYDDSDRPSGIPDRFSGSNSRSTATTATLTISRVEAGDEADYYCQVWETSEDLWVFGGGTKLTVL
notes: also called MAb TRL848
Take B3: the binding result in assay [1] is given as “binds”; in assay [2], “no binding (tested: 5 μg/ml (30 nM))”; in assay [3], “no binding (tested: 5 μg/ml (30 nM))”.

B4: TRL845 (antibody, V domains shown)
VH: QVQLVQSGGDLVQPGGSLRLSCAASGFTFSRYSMNWVRQAPGMGLEWVAYISDTSRTIYYADSVKGRFTISRDNAKNSLYLQMKSLRDEDTAVYYCARDPDTPFVRAFDSWGQGTLVTVSS
VL: DIVLTQSPSFLSASVGDRVTITCRASQLISSYFAWYQQKPGKPPKLLIYAASTLQSGVPSRFSGSGSGTQFSLTISSLQPEDFATYYCQQLNSYPPITFGQGTRLEIK
notes: also called MAb TRL845
As for B4, the Kd in assay [1] was at most 0.2 nM. Moreover, the binding result in assay [2] and in assay [3] was “no binding (tested: 5 μg/ml (30 nM))” throughout.

B5: TRL849 (antibody, V domains shown)
VH: QVQLVESGPGLVKPSQTLSLTCTVSGGSISNGGYHWSWIRQHPGKGLEWIGNIYYRGSTFYDPSLKSRVTISVDTSKSQFSLKLTSVTAADTAVYYCARMPLANYDLLTGLYIGAFDLWGQGTMVTVSS
VL: DIVLTQSPATLSVSPGERATLSCRASQSVNRNLAWFQQIPGQAPRLLIFDASTRAADIPARFSGGGSGAEFTLTVSSLQPEDFAVYYCQQYDKWPPGFGQGTKVEIK
notes: also called MAb TRL849
Turning to B5, the Kd in assay [1] is at most 0.2 nM. The binding result in assay [2] and in assay [3] was “no binding (tested: 5 μg/ml (30 nM))” each time.
